Values of other authors as cited in US20090145201A1, “METHODS AND APPARATUSES FOR REDUCING EFFECTS OF MOLECULE ADSORPTION WITHIN MICROFLUIDIC CHANNELS” (EKSIGENT TECHNOLOGIES, LLC, priority 2005, published 2009).

Settings: source: Cantor and Schimmel 1980, Biophysical Chemistry Part II

Fibrinogen
Diffusion Coefficient: 1.98e−7 cm^2 · s^−1

OC[C@H]1O[C@@](CO)(O[C@H]2O[C@H](CO)[C@@H](O)[C@H](O)[C@H]2O)[C@@H](O)[C@@H]1O [sucrose, reference compound]
Diffusion Coefficient: 4.59e−6 cm^2 · s^−1

lysozyme
Diffusion Coefficient: 1.04e−6 cm^2 · s^−1

NCC(=O)O [glycine, reference compound]
Diffusion Coefficient: 9.33e−6 cm^2 · s^−1

Myosin
Diffusion Coefficient: 1.10e−7 cm^2 · s^−1

Bovine serum albumin
Diffusion Coefficient: 6.01e−7 cm^2 · s^−1

[Cl-].[Na+] [NaCl, reference compound]
Diffusion Coefficient: ~1.5e−5 cm^2 · s^−1

Tropomyosin
Diffusion Coefficient: 2.2e−7 cm^2 · s^−1
